In patent publication US20240336701A1 (Novartis, published 2024):

Tests used:
[1] = target: recombinant human ENTPD2 extracellular domain (residues 29-462) with C-terminal Avi-His6 tag (human, UniProt Q9Y5L3 29-462); experiment: cell-based or functional assay
[2] = target: T1, human ENTPD2, full length, on cells (human, UniProt Q9Y5L3 1-495); experiment: cell-based or functional assay
T1 sequence: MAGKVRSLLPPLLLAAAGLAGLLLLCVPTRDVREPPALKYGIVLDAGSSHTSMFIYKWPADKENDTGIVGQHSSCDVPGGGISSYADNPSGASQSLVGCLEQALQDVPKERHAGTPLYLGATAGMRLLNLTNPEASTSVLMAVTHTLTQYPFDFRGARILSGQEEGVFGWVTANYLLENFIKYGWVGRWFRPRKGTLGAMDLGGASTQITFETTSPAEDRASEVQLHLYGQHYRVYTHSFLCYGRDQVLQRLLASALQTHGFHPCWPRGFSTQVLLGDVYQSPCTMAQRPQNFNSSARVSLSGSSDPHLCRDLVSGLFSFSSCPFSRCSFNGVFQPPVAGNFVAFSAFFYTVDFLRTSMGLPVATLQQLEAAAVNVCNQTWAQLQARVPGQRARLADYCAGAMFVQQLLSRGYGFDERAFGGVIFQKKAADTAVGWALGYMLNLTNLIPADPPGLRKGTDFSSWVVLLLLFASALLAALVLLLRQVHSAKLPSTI

[3] = target: T2, cynomolgus ENTPD2, full length, on cells (cynomolgus macaque, UniProt Q9Y5L3 1-495 (human entry)); experiment: cell-based or functional assay
T2 chain: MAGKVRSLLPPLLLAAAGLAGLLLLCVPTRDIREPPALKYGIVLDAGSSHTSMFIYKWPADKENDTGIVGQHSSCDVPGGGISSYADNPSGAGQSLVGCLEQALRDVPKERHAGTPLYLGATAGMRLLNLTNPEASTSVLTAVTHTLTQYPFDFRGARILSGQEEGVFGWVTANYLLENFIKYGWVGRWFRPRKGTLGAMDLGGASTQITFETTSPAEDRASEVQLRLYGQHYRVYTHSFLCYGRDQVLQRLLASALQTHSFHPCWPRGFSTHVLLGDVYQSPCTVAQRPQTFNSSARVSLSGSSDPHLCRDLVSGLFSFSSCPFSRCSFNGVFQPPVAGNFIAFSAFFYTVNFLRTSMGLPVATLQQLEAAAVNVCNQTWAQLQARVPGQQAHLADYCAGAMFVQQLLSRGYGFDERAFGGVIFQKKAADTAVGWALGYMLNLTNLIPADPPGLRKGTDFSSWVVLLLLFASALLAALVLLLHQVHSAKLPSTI

[4] = target: T2, cynomolgus ENTPD2, full length, on cells; experiment: FACS
[5] = target: T3, mouse ENTPD2, full length, on cells (mouse, UniProt O55026 1-495); experiment: cell-based or functional assay
T3 sequence: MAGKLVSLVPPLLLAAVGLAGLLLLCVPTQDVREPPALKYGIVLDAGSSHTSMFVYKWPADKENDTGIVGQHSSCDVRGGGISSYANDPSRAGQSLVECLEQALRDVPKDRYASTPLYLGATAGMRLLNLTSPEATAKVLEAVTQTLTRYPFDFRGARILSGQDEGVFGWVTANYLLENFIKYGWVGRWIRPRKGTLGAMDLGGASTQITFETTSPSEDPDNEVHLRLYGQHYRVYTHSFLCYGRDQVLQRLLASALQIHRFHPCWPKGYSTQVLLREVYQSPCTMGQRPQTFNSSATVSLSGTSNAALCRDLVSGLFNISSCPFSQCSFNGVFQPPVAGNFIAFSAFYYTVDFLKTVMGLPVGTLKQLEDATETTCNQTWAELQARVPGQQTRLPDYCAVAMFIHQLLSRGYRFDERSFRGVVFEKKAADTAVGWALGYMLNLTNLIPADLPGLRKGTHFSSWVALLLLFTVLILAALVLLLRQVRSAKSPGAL

[6] = target: T1, human ENTPD2, full length, on cells; experiment: flow cytometry on human ENTPD2 engineered B16LM3 clone B5 cells (human ENTPD2 expressed, endogenous mouse ENTPD2 knocked out); anti-mouse IgG-AF647 secondary. The text names the antibody as mAb13.

| Binder | ENTPD2 Biochemical Assay at 1 uM ATP IC50 [1] | Human ENTPD2 NIH/3T3 Assay % inhibition [2] | Human ENTPD2 NIH/3T3 Assay IC50 [2] | Cyno ENTPD2 NIH/3T3 Assay % inhibition [3] | Cyno ENTPD2 NIH/3T3 Assay IC50 [3] | RKO Assay % inhibition [2] | RKO Assay IC50 [2] | binding result [4] | ENTPD2 Functional Assay IC50 (nM), mouse ENTPD2 NIH/3T3 cells [5] | binding result [6] |
| --- | --- | --- | --- | --- | --- | --- | --- | --- | --- | --- |
| ANTI-HUMAN ENTPD2 MAB16 (antibody, human IgG1, kappa, V domains shown) VH: DIQLQESGPGLVKPSQSLSLTCSVTGYSITSGYYWNWIRQFPGNKLEWMGYISYDGDNNYNPSLKNRISITRDTSKNQFFLKLSSVTTEDTATYYCAGGYYRYGLSYYYVMDYWGQGTSVTVSS VL: DTVLTQSPASLAVSLGQRATISCKASQSVDYDGNSYMNWYQQKPGQPPKLLIYAASNLESGIPARFSGSGSGTDFTLNIHPVEEEDAATYYCQQSNEDPPTFGGGTKLEIKR | 77.3 nM | 30% | > 133 nM | 5% | > 133 nM | – | – | – | – | – |
| ANTI-HUMAN ENTPD2 MAB1 (antibody, human IgG1, kappa, V domains shown) VH: EVQLVQSGAEVKKPGESLKISCKASGYTFTDYNMDWVRQMPGKGLEWMGDINPKYDISTYNQQFKGQVTISADKSIRTAYLQWSSLKASDTAMYYCARRGFFLYYGINYYYFDVWGQGTLVTVSS VL: DIQLTQSPSSLSASVGDRVTITCSASSSVSYIHWFQQKPGKAPKLLIYSTSNLASGVPSRFSGSGSGTFFTLTISSLQPEDFATYFCHQWSSYPWTFGQGTKVEIKR | 0.52 nM | 92% | 1.1 nM | 91% | 4.1 nM | 97% | 0.8 nM | – | – | – |
| ANTI-mouse ENTPD2 MAB13 (antibody, mouse IgG2a, kappa, V domains shown, also called Anti-ENTPD2 mAb13) VH: QVQLVQSGAELKQPGQSVKISCKASGYTFTHYGMNWVKQAPGQGLKWMGWINTDTGNPTYADDFKGRFVFSLDTSVSTAYLQISNLKNEDTATYYCVRYGTLYSGYGFFFDSWGQGTLVTVSS VL: DIMMTQSPSSLSVSAGEKATITCKSSQSLFNSNTNKNYLNWYLQKPGQSPKLLFYYASTRHTGVPDRFIGSGSGTDFTLTITSVQDEDLADYYCQQWYSYPWTFGPGTKLEIKR | – | – | – | – | – | – | – | no binding | 2.8 nM | no binding |
| ANTI-mouse ENTPD2 MAB14 (antibody, mouse IgG2a, kappa, V domains shown) VH: QVQLVQSGAELKQPGQSVKISCKASGYTFWHYGMNWVKQAPGQGLKWMGWINTDTGNPTYADDFKGRFVFSLDTSVSTAYLQISNLKNEDTATYYCVRYGTLYSGYGFFFDSWGQGTLVTVSS VL: DIMMTQSPSSLSVSAGEKATITCKSSQSLFNSNTNKNYLNWYLQKPGQSPKLLFYYASTRHTGVPDRFIGSGSGTDFTLTITSVQDEDLADYYCQQWYSYPWTFGPGTKLEIKR | – | – | – | – | – | – | – | – | 4.6 nM | – |
| ANTI-mouse ENTPD2 MAB15 (antibody, mouse IgG2a, kappa, V domains shown) VH: QVQLVQSGAELKQPGQSVKISCKASGYTFHHYGMNWVKQAPGQGLKWMGWINTDTGNPTYADDFKGRFVFSLDTSVSTAYLQISNLKNEDTATYYCVRYGTLYSGYGFFFDSWGQGTLVTVSS VL: DIMMTQSPSSLSVSAGEKATITCKSSQSLFNSNTNKNYLNWYLQKPGQSPKLLFYYASTRHTGVPDRFIGSGSGTDFTLTITSVQDEDLADYYCQQWYSYPWTFGPGTKLEIKR | – | – | – | – | – | – | – | – | 5.9 nM | – |
| ANTI-HUMAN ENTPD2 MAB21 (antibody, human IgG1, kappa, V domains shown) VH: EVQLQQSGPELVKPGASVKISCKTSGYTFTEYTMHWVKQSHGKSLEWIGGINPNNGITTYNQKFKGKATLTVDKSSSTAYMDLRSLTSEGSAVYYCARRGFPIYYYGTSLYYFDYWGQGTTLTVSS VL: QIVLTQSPAIMSASLGEEITLTCSASSSVSYMHWYQQRSGTSPKLLIYTTSNLASGVPSRFSGSGSGTFYSLTISSVEAEDAADYYCHQWSSYPWTFGGGTKLEIKR | 0.87 nM | – | – | – | – | – | – | – | – | – |
| ANTI-HUMAN ENTPD2 MAB17 (antibody, human IgG1, kappa, V domains shown) VH: EVQLQQFGAELVKPGASVKISCKASGYTFTDYNMDWVKQSHGKSLEWIGDINPKYDISTYNQQFKGKATLTVDKSSSTAYMELRSLTSEDTAVYYCARRGFFLYYGINYYYFDVWGAGTTVTVSS VL: QIVLTQSPAIMSASLGEEITLTCSASSSVSYIHWYQQKSGTSPTLLIYSTSNLASGVPSRFSGSGSGTFYSLTISSVEAEDAADYYCHQWSSYPWTFGGGTKLEIKR | 0.27 nM | 98% | 0.6 nM | 91% | 1 nM | 96% | 0.5 nM | – | – | – |
